In experiment [1] the target is HSV-1 glycoprotein B ectodomain lacking the membrane proximal region, gB730t (residues 31-730) (herpes simplex virus type 1 (HSV-1)) (UniProt P06437). Description: cryo-EM projection images; SEC fraction 22 (run without detergent) embedded in vitreous ice on holey carbon grids.
For experiment [2] the target is unchanged. Description: cryo-EM structure; cryo-ET subtomogram averaging of gB730t trimers bound to liposomes (phosphatidylcholine:cholesterol 1.7:1), pH 5.5, protein ca. 1 mg/ml, 1 hr at 37 C; 786 particles, 2.7 nm.
Experiment [3] shares this target. Description: SEC; Superdex200 column run in 2x PBS; gB773t also run in 2x PBS/0.5% octyl-glucoside after overnight incubation with the detergent.
Experiment [4] shares this target. Description: negative stain EM; SEC fractions 19-22 (run without detergent) on carbon-coated grids at 2-20 ug/ml; 0.75% uranyl formate pH 5.5 or methylamine vanadate pH 8.0.
The target is the same in experiment [5]. The experiment is described as above. The source holds these as a separate data set.
For experiment [6], the target named is HSV-1 glycoprotein B full-length ectodomain including the membrane proximal region, gB773t (residues 31-773) (herpes simplex virus type 1 (HSV-1)) (UniProt P06437). Description: cryo-EM projection images; SEC fraction 22 (run without detergent) embedded in vitreous ice on holey carbon grids.
For experiment [7] the target is unchanged. Description: negative stain EM; SEC fractions 19-22 (run without detergent) on carbon-coated grids at 2-20 ug/ml; 0.75% uranyl formate pH 5.5 or methylamine vanadate pH 8.0.

As for “HSV-1 glycoprotein B ectodomain lacking the membrane proximal region, gB730t (residues 31-730) (from UniProt P06437 31-730) (domain or fragment)”, the stoichiometry N in experiment [1] was determined as 3; in experiment [2], 3; in experiment [3], 3; in experiment [4], 3; in experiment [5] it was 6.

On to “HSV-1 glycoprotein B full-length ectodomain including the membrane proximal region, gB773t (residues 31-773) (from UniProt P06437 31-773) (domain or fragment)”, for which the stoichiometry N in experiment [6] and in experiment [7] was 3 in each case.

The values above are taken from publication PMC3737472.
